Test results published in IntAct's records for PubMed 29983246.

B1: Mitochondrial-derived peptide MOTS-c (Homo sapiens), A0A0C5B5G6 (parent)
chain: MRWQEMGYIFYPRKLR
partner: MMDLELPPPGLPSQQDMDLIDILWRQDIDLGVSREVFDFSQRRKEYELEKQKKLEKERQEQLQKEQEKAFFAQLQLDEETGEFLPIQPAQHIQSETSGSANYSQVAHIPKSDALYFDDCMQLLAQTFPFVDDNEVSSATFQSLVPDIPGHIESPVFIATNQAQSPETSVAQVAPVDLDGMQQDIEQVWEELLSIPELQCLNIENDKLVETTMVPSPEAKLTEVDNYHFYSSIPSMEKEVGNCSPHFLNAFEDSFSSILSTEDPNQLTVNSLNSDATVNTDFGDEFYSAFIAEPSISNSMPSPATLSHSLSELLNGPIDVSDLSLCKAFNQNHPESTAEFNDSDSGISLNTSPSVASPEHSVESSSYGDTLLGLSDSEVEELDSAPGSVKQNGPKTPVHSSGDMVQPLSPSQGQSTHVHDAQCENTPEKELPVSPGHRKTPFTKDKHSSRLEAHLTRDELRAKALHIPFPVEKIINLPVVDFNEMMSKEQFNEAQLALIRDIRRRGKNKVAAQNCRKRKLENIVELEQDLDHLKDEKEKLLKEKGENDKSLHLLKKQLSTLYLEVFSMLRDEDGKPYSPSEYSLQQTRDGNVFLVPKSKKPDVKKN

Variants of: B1
Conditions: with nf2l2_human NFE2L2, Q16236

Row | effect of a mutation on the interaction | Variant
1 | with no effect | R13A;K14A;L15A;R16A
